Target: H7N9 HA (A/Shanghai/1/2013) (Influenza A virus A/Shanghai/1/2013 …, strain)
Assay: not given
Details: not given

Row | Binder | binding result
1 | H7-Ab5 (antibody, V domains shown) VH: EVQLVESGAEMRKPGSSVKVSCKASGGTFNTYGISWVRQAPGQGLEWMGGIIPMFGTENHAQKFQGRVTITADKSTSIAYMELSSLTSEDTAVYYCARAPVVGSRNVYYYHGLDVWGQGTTVTVSS VL: SYELTQPPSVSVSPGQTARITCSGDALPKRYAFWYQQKPGQAPVLVIYKDTERPSGIPERFSGSRSGTTVTLTISGVQAEDEGDYYCQSADSSDPCLFGGGTKLTVL | binds
2 | H7-Ab8 (antibody, V domains shown) VH: EVQLVQSGGGVVLPGRSLRLSCAASGFTFSNHGMHWVRQAPGKGLEWMAVIWSDGTTKYYADSVKGRFTISRDNSKNTVYLQMNSLRAEDTAVYYCAREVIYSGYFFDHWGQGTTVTVSS VL: not shown | binds
3 | H7-Ab14 (antibody, V domains shown) VH: EVQLVESGPRLVKPSGTLSLTCAVSDDSISSAGYYWGWIRQSPGKGLEWIAAFFFGGSAYYNPSLKSRLTISTDTSENQFSLSLASVTAADTAVYYCAVIQLSTPPVPFEIWGQGTLVTVSS VL: EIVMTQSPGTLSLSPGERATLSCRASQIISSNYLAWYQQKPGQAPRLLIFGASSRATGTPDRFSGSGSGTDFTLTISRLEPEDFVVYYCHQYDSSWYTFGQGTKVEIK | binds
4 | H7-Ab7 (antibody, V domains shown) VH: QVQLQESGGGLVQPGGSLRLSCAASGFTFSAYAMNWVRQAPGKGLDWVSGIGGNGGITKYADSVKGRFTISRDNSKKTLYLQMNSLTAEDTAVYYCAKDASWDVRGWFDPWGQGTLVTVSS VL: not shown | binds
5 | H7-Ab12 (antibody, V domains shown) VH: EVQLVESGPGLVKPAQTLSLTCTVSGGSISSGGDYWSWIRQHPGKGLEWIGYIYYSGNAFYNPSLKSRVSMSVDTSKNQFSLKLSSVSAADTAVYYCARVRGVYFWGQGTLATVSS VL: EIVMTQSPGTLSLSPGERATLSCRASQSVSSSHLAWYQQKPGQAPRLLIYGASSRATGIPDRFSGSGSGTDFTLTISRLEPEDFAVYYCQQYGSSLPPWTFGQGTKVEIK | binds
6 | H7-Ab10 (antibody, V domains shown) VH: WVQLVESGGGLVQPGGSLRLSCVDSGSTFSKYWMTWVRQAPGKGLEWVANIKEDGSKEYYMESLKGRFTISRDNAKNSLYLQISTLRAEDTAVYYCATSSGWRFEVWGRGTTVTVSS VL: QSALTQPPSASGSPGQSVTISCTGTSSDVGTYNYVSWYQQQADKAPKLIIFDVDKRPSGVPDRFSGSKSGNTASLTVSGLQADDEADYYCSSYAGTKHWIFGGGTKLTVL | binds
7 | H7-Ab1 (antibody, V domains shown) VH: EVQLVQSGAEVKKPGASVKVSCKTSYAMHWVRQAPGQRLEWMGWINAGNGYTKYSPKFQGRVTFTWDTSASTAYMELNSLRSEDTAVYYCAHGSGSYLNWFDPWGQGTLVTVSS VL: QSVLTQPASVSGSPGQSITISCTGTSSDVGGYNYVSWYQQHPGKAPKLMIYEVSNRPSGVSNRFSGSKSGNTASLTISGLQAEDEVDYYCTSYTSSSTLVAFGRGTKLTVL | binds
8 | H7-Ab3 (antibody, V domains shown) VH: EVQLVESGAEVKKPGSSVKVSCKTSGGTFNIYAINWVRQAPGQGLEWMGMIIPIFGSPKTAREFQDRLTIDADTSTSTAYMELSNLTSEDTATYFCSRVADDYDFWSPNKFWGQGTLVTVSS VL: DIQLTQSPSTLSASVGDTVTITCRASQSVNSWLAWYQQKPGKAPKLLIYKTFNLETGVPSRFSATGSGTEFTLTISRLQPDDFATYYCQQYNSNSHFGQGTKVEIK | binds
9 | H7-Ab4 (antibody, V domains shown) VH: EVQLVESGAEVKKPGSSVKVSCKASGGTFSSHGINWVRQAPGQRLEWMGGINPISGTPHYAQKFQGRVTITADESTTTSYMELSSLRSEDTAVYYCARIHRAGLEANYWGQGTLVTVSS VL: not shown | binds
10 | H7-Ab11 (antibody, V domains shown) VH: QVQLQESGPRLVKPSQTLSLTCAVSGGSITSNDYNWSWIRQHPGKGLEWIGYIYHSGNTFYNPALESRVSMSVDTSKNQFSLRLTSVTAADTAVYFCARTQRSTVAHIVGPVQGRFHFDYWSQGTLVTVSS VL: DIQMTQSPGTLSLSPGERVTLSCRASRSVSPYYLAWYQQKPGQAPRLLIYGSSTRATGIPDRFSGSGSGTDFTLTINKLEPEDFAIYYCQQYGRSSGFVFGPGTKVDIK | binds
11 | H7-Ab6 (antibody, V domains shown) VH: EVQLVESGGGLVKPGGSLRLSCTASGFTFSDYPMSWVRQAPGKGLEWLSSISTGSTYIYYADSVKGRFTISRDNAQNSMYLQMNSLRAEDTAIYYCARGAKVELALGWYFDLWGRGTLVTVSS VL: QSVLTQPPSVSAAPGQKVTISCSGSNSNIGNNFVSWYQQLPGTAPKLLIYDNNKRPSGIPDRVSGSKSGTSATLGITGLQTGDEADYYCGTWDNRLSAAVFGGGTKLTVL | binds
12 | H7-Ab13 (antibody, V domains shown) VH: EVQLVESGPGLVKPSQTLSLTCTVSDGTIGSDAYHWSWIRQYPGRGLEWIGSFYYSGNTYYNPSLKSRLTISVDTSKNQFSLKLNSVTAADTAVYYCARNSAYCTDTRCYNGGGWFHPWGQGTTVTVSS VL: DIVMTQSPGTLSLSPGERATLSCRASQSVSSTYLAWYQQKPGQAPRFLIYGASRRATGIPDRFSGSGSGTDFTLTISRVEPEDFTVYYCQQYGSSPITFGQGTRLEIK | binds

Target: T1, H1N1 HA (A/California/04/2009) (Influenza A virus A/California/04/2009 …, UniProt C3W5S1, strain)
Assay: not given
Details: not given

Row | Binder | binding result
13 | H1-Ab53 (antibody, V domains shown) VH: EVQLVESGLRLVKPSETLSVTCTVSGGSMSTTSYYWGWIRQPPGKALEWIGSIYYDGNSYYKPSLRSRFTMLVDTSKNQFSLKLTSVTAADTAVYYCARMSYMDYDFSTGYWNWFDPWGQGTLVTVSS VL: QSVLTQPASVSGSPGQSITISCTGTRRDVGSYRLVSWYQHHPGKAPKLMIYEGTKRPSGVSDRFSGSKSGNTASIIISGFQAEDEADYYCCSYAGSSTWVFGGGTRVTVL | binds
14 | H1-Ab61 (antibody, V domains shown) VH: EVQLLESGAEVKKPGESLKISCKTSGYTFPRYWVGWVRQMPGKGLEWMGFIYPGDATTRYSPSFQGQVTISADKSINTAYLHWSSLKASDTAVYFCARHPGDKSFYYYGLDVWGQGTTVTVSS VL: AIRMTQSPSTLSASVGDRVTITCRASQSIRSWLAWYQQKPGKAPKLLISKASSLQSGVPSRFSGTGSGTEFTLTISSLQPDDFATYYCQQYNSDSITFGQGTRLEIK | binds

Target: T1, H1N1 HA (A/California/04/2009)
Assay: SPR
Details: both partners purified

Row | Binder | Kd
15 | H1-Ab30 (antibody, V domains shown, IgG1; source: HEK293T, transfected with heavy and light chain plasmids; purified mAbs) VH: EVQLVQSGGGLVQPGGSLRLSCAASGFTFSSYAMSWVRQAPGKGLEWVSTISGSGISTYYADSVKGRFTISRDNSKNTLYLQMNSLRADDTAVYYCAKALATHIVMAGTLDFWGQGTLVTVSS VL: EIVMTQSPATLSVSPEERATLSCRASQSVTNSLAWYQQKPGQAPRLLIYGASTRATGIPARFSGSGSGTEFTLTISSLQSEDFAVYYCQQYNNWPPLTFGGGTKVEIK | 0.066 nM
16 | H1-Ab43 (antibody, V domains shown, IgG1; source: HEK293T, transfected with heavy and light chain plasmids; purified mAbs) VH: EVQLVESGGNLVQPGGSLTLSCAVSGFAFSNFEANWVRQAPGKGLEWVSYISKSGLTKYYSDSVKGRFTISRDNAKSSLYLQMNSLRAEDTAVYYCVSPIPVAGTMEIYWGQGTLVTVSS VL: DIQMTQSPATLSVFPGERATLSCRASQSIRSDLAWYQQKPGQPPRLLIYGASTRATGIPARFSGSGSETEFTLTISSLQSEDFAVYYCQQYNNWPPLTFGGGTKVEIK | 0.155 nM
17 | H1-Ab55 (antibody, V domains shown, IgG1; source: HEK293T, transfected with heavy and light chain plasmids; purified mAbs) VH: EVQLVESGPGLVKPSETLSLTCTVSGGSISSDYWSWIRQAPGKGLEWLAYIHHNGRTNYNPSLGSRVAISIDTSRSQFSLKLGSVTAADTAVYYCARDQTGIRKSNAFDLWGQGTLVTVSS VL: DIQLTQSPSSLSASVGDRVTITCRASQNIRSYLNWYQQKPGKAPKLLIYGVSTLQNGVPSRFSGSASGSDFTLTISSLQPEDFATYHCQQSYDTPQTFGPGTKVEIK | 0.467 nM
18 | H1-Ab41 (antibody, V domains shown, IgG1; source: HEK293T, transfected with heavy and light chain plasmids; purified mAbs) VH: QVQLQESGGGVVQPERSLRLSCAASGFKFSSYAMHWVRQAPGKGLEWVAVFWSDGTTKYYANSVRGRFTVSRDNSKNMLYLQINSLRAEDTAVYYCARGFLLPYYGSSGYEYFFDFWGQGTTVTVSS VL: AIGMTQSPESLAVSLGERATINCKSGQSILHSSNNKNYLAWYQQKPGQPPKLVIYWASTRESGVPDRFSGSGSETDFTLTISSLQAEDVAVYYCQQYYSTPSFGGGTKVEIK | 0.0819 nM
19 | H1-Ab32 (antibody, V domains shown, IgG1; source: HEK293T, transfected with heavy and light chain plasmids; purified mAbs) VH: EVQLVESGGGLVQPGGSLRLSCAASSFTFSNYAMSWVRQAPGKGLEWVSLINSGGGDKYYADSVKGRFIVSRDNSKNALYLQMNSLRAEDTAVYFCARVVGRETFGLVIPIYYFDYWGQGDLVTVSS VL: EIVLTQSPATLSLSPGERATLSCRASQSVSSFLAWYQQKPGQAPRLLIYDASNRATGVPARFSGSGSGTDFTLTISSLEPEDFAVYYCQQCSNWPPLTFGGGTKVEIK | 0.56 nM
20 | H1-Ab19 (antibody, V domains shown, IgG1; source: HEK293T, transfected with heavy and light chain plasmids; purified mAbs) VH: EVQLVESGGGLVKPGGSLRLSCAASGFTFSSYSMHWVRQAPGKGLEWVSSISSIGTYIYYADSVKGRFTISRDNAKNSLYLQLNSLRVEDTAVFYCATGVTSSYGGYSGYFDSWGQGTLVTVSS VL: DIVMTQSPSSLSASVGDRVTITCQASQDISKHLNWYQQKPGKAPKLLIYDASNLETGVPSRFSGSGSGTDFSFTISSLQPEDIATYYCQQYDNPFLTFGGGTKVEIK | 0.001 nM
21 | H1-Ab56 (antibody, V domains shown, IgG1; source: HEK293T, transfected with heavy and light chain plasmids; purified mAbs) VH: EVQLVQSGPGLVKPSETLSLTCTVSGGSISSDYWSWIRQPPGKGLEWIGYIHQNGRTNSNPSLRGRVSMLVDTSESQFSLKLGSVTAADTAVYYCARDQAGIRRSNAFDIWGQGTLVTVSS VL: DIVMTQSPSSLSASVGDRVTITCRASQSISTYLNWYQQKPGKAPKLLIYAASTLQSGVPSRFSGSASGSEFTLTISSLQPEDFASYYCQQSYDIPQTFGPGTKVEIK | 0.372 nM
22 | H1-Ab59 (antibody, V domains shown, IgG1; source: HEK293T, transfected with heavy and light chain plasmids; purified mAbs) VH: EVQLVESGPGLVKPSQTLSLTCTVSGGSVSSGGYSWTWIRQPAGKGLEWIGRIYFTGSTNYNPSLKSRITISVDTSKNQFSLRLSSVTAADTAVYYCAREDDFVWGSYRRFAYFDYWGQGTLVTVSS VL: EIVMTQSPSSLSASVGDRVNITCQASQDISNYLNWYQQKPGEAPKLLIYGASSLQTGVPSRFSGSGSGTNFIFTISSLQPEDLATYYCQQYDNLPMYTFGQGTKVEIK | 14 nM

— article PMC5551578 (The Journal of Experimental Medicine, 2017)
